Source: paper PMC12723162, “Alphaherpesvirus pUL21 homologs use non-canonical sequences to compete with cellular adaptors for protein phosphatase 1 binding” (The Journal of Biological Chemistry, 2025)
Primed or numbered codes have the meaning given here. Where no end group is shown, it is not given here. FITC′ = fluorescein isothiocyanate; Ahx = NCCCCCC(=O)O

Tests used:
[1] = target: T1, PP1γ catalytic domain (residues 7–300)-H6 (mouse, UniProt P63087 7-300); test: ITC; 25 °C; 50 mM HEPES pH 8.0, 500 mM NaCl, 0.5 mM TCEP; 12 x 3 μl injections; peptide or pORF38-NLT titrated into PP1γ catalytic domain; one-site binding model; syringe and cell contents in Table S1; conditions: both partners purified
T1 construct: mouse PP1γ catalytic domain, residues 7-300; no tag cleavage is described; also called PP1 catalytic domain; protein phosphatase 1; source: E. coli T7 Express lysY/Iq, purified (Ni-NTA, SEC)

[2] = target: T1, PP1γ catalytic domain (residues …); test: fluorescence polarisation; competition: serial dilution of competitor added to a pre-formed complex of 2 nM FITC-GADD34 peptide and 250 nM PP1γ catalytic domain (final); 50 mM HEPES pH 8.0, 500 mM NaCl, 0.05% TWEEN-20; 27 °C; conditions: both partners purified
[3] = target: T1, PP1γ catalytic domain (residues …); test: fluorescence polarisation; direct titration: 2 nM FITC-GADD34 peptide with a serial dilution of PP1γ catalytic domain; 50 mM HEPES pH 8.0, 500 mM NaCl, 0.05% TWEEN-20; 27 °C; one-site binding model; conditions: both partners purified
[4] = target: T1, PP1γ catalytic domain (residues …); test: fluorescence polarisation; direct titration of PP1γ catalytic domain against FITC-GADD34 peptide in the buffer optimised for pUL21 (Tris pH 8.5 in place of HEPES pH 8); conditions: both partners purified
[5] = target: T1, PP1γ catalytic domain (residues …); test: fluorescence polarisation; competition: increasing pUL21 added to a pre-formed complex of 2 nM FITC-GADD34 peptide and 250 nM PP1γ catalytic domain; Tris pH 8.5 in place of HEPES pH 8; conditions: both partners purified
endogenous PP1β = conditions: HEK 293T cells; cited from earlier work
Text: (§1) HSV-1 pUL21 was recently identified as a novel viral PP1 regulatory protein that promotes virus replication and spread. HSV-1 pUL21 and its homologues across the alphaherpesviruses comprise two folded domains ([21], [22]) that are linked by a flexible linker domain ([23]). PP1 binding to pUL21 requires a novel SLiM, termed the Twenty-one Recruitment Of Protein Phosphatase One (TROPPO) motif, that is present in the linker region and is conserved across alphaherpesviruses.

endogenous PP1γ = conditions: HEK 293T cells; cited from earlier work
Text: as §1

endogenous PP1α [6] = conditions: HEK 293T cells; cited from earlier work
Text: as §1

endogenous PP1α [7] = test: GFP affinity capture / co-IP of endogenous PP1α with GFP-tagged bait; type: binding, human; conditions: HEK 293T cells, 24 h post-transfection, GFP-Trap, immunoblot; representative of two independent experiments

T1 sequence (P63087 7-300): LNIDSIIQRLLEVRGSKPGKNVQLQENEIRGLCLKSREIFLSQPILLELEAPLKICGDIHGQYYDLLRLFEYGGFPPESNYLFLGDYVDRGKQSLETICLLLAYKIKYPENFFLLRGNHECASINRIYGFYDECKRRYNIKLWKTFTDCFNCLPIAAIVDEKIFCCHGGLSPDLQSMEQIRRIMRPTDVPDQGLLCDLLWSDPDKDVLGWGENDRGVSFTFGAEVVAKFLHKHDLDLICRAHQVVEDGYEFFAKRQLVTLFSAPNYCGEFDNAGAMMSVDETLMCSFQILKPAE

B1: pORF38-NLT-H6 (domain or fragment)
chain: MEFPYHSTVSYNGVTFYFNERATRAYFICGGCLISIPRKHGGEIAKFGHVVRGVGPGDRSVASYVRSELNRTGKTWAVSSNNNCVFLDRVALLAAGSGAVDRDLCGTFDVEVEDPTLADYLVSLPVTHLTLVAGVDVTRENKLKLFPTPTAINTTNGFMYVPNEASFSLVYMRMLELPESLQELVSGLFDGTPEIRDALNGSNDDEKTSIIVSRRAADVVTEDVKADDVPISGEPYSEKQPRRRKKSDHITLSNFVQIRTIPR
notes: VZV pORF38 residues 1-263: N-terminal domain plus linker up to the end of the TROPPO motif (NLT region); Sub-cloned into the vector pOPTnH; also called pOPF38-NLT; source: E. coli T7 Express lysY/Iq, purified (Ni-NTA, SEC); not shown: His6, C-terminal, kept
[1]
  Kd: 497 nM
  stoichiometry N: 1
[2]
  IC50: 417 nM

B2: GADD34 RVxF+ϕϕ[xF] peptide (residues 552–568), FITC-labelled (peptide)
peptide: {FITC′-Ahx}-KARKVRFSEKVTVHFLA
notes: GADD34 (PP1 regulatory subunit 15A), residues 552-568, RVxF and ϕϕ[xF] motifs; also called fluorescent GADD34 peptide; GADD34 peptide; source: synthetic peptide (GenScript, >95% purity)
[3]
  Kd: 144 nM
[4]
  Kd: 55 nM

B3: pUL21-RVxF-H6 (natural protein)
chain: MELSYATTMHYRDVVFYVTTDRNRAYFVCGGCVYSVGRPCASQPGEIAKFGLVVRGTGPDDRVVANYVRSELRQRGLQDVRPIGEDEVFLDSVCLLNPNVSSELDVINTNDVEVLDECLAEYCTSLRTSPGVLISGLRVRAQDRIIELFEHPTIVNVSSHFVYTPSPYVFALAQAHLPRLPSSLEALVSGLFDGIPAPRQPLDAHNPRTDVVITGRRAPRPIAGSGAGSGGAGAKRVTFSEFVQVKHIDRVGPAGVSPAPPPNNTDSSSLVPGAQDSAPPGPTLRELWWVFYAADRALEEPRADSGLTREEVRAVRGFREQAWKLFGSAGAPRAFIGAALGLSPLQKLAVYYYIIHRERRLSPFPALVRLVGRYTQRHGLYVPRPDDPVLADAINGLFRDALAAGTTAEQLLMFDLLPPKDVPVGSDVQADSTALLRFIESQRLAVPGGVISPEHVAYLGAFLSVLYAGRGRMSAATHTARLTGVTSLVLAVGDVDRLSAFDRGAAGAASRTRAAGYLDVLLTVRLARSQHGQSV
notes: methods, results and legend print V239F; also called pUL21 A237V + V239F (RVxF) mutant; source: E. coli T7 Express lysY/Iq, purified (Ni-NTA, SEC); not shown: His6, C-terminal, kept
[5]
  IC50: 337 nM

B4: pUL21-GFP (protein)
chain: MELSYATTMHYRDVVFYVTTDRNRAYFVCGGCVYSVGRPCASQPGEIAKFGLVVRGTGPDDRVVANYVRSELRQRGLQDVRPIGEDEVFLDSVCLLNPNVSSELDVINTNDVEVLDECLAEYCTSLRTSPGVLISGLRVRAQDRIIELFEHPTIVNVSSHFVYTPSPYVFALAQAHLPRLPSSLEALVSGLFDGIPAPRQPLDAHNPRTDVVITGRRAPRPIAGSGAGSGGAGAKRATVSEFVQVKHIDRVGPAGVSPAPPPNNTDSSSLVPGAQDSAPPGPTLRELWWVFYAADRALEEPRADSGLTREEVRAVRGFREQAWKLFGSAGAPRAFIGAALGLSPLQKLAVYYYIIHRERRLSPFPALVRLVGRYTQRHGLYVPRPDDPVLADAINGLFRDALAAGTTAEQLLMFDLLPPKDVPVGSDVQADSTALLRFIESQRLAVPGGVISPEHVAYLGAFLSVLYAGRGRMSAATHTARLTGVTSLVLAVGDVDRLSAFDRGAAGAASRTRAAGYLDVLLTVRLARSQHGQSV
modifications: left off: GFP (from the vector pEGFP-N1), end not stated, kept
Endogenous PP1β
  Co-precipitation of endogenous PP1β: co-precipitates with endogenous PP1α, PP1β and PP1γ
Endogenous PP1γ
  Co-precipitation of endogenous PP1γ: co-precipitates with endogenous PP1α, PP1β and PP1γ
Endogenous PP1α [6]
  Co-precipitation of endogenous PP1α: co-precipitates with endogenous PP1α, PP1β and PP1γ
Endogenous PP1α [7]
  Co-IP of endogenous PP1α: efficiently precipitate endogenous PP1α
